# Source: patent publication US20210032299A1 (Eli Lilly, published 2021)
# Starred links: 1 amine or outer side, 2 acyl side, 3 side chain; linkers in the order of their positions; H or OH if unused. Non-standard residues stand in square brackets, D forms with d. Groups on a side chain read outwards from the residue. No end group written: not given here. *: point of attachment. C20 diacid = O=C(O)CCCCCCCCCCCCCCCCCCC(=O)*; C18 diacid = O=C(O)CCCCCCCCCCCCCCCCC(=O)*; αMePhe(2-F) = C[C@](N)(Cc1ccccc1F)C(=O)O; γGlu = O=C(O)[C@H](CCC(=O)[*:2])N[*:1]; AEEA = NCCOCCOCC(=O)O; Aib = CC(C)(N)C(=O)O
# T1: human glucose-dependent insulinotropic polypeptide (GIP) receptor (human, UniProt P48546 22-466)
# T1 construct: whole, on cells; Assayed as crude membranes of stably transfected CHO cells; also called hGIPR; human GIP receptor
# T1 sequence (looked up): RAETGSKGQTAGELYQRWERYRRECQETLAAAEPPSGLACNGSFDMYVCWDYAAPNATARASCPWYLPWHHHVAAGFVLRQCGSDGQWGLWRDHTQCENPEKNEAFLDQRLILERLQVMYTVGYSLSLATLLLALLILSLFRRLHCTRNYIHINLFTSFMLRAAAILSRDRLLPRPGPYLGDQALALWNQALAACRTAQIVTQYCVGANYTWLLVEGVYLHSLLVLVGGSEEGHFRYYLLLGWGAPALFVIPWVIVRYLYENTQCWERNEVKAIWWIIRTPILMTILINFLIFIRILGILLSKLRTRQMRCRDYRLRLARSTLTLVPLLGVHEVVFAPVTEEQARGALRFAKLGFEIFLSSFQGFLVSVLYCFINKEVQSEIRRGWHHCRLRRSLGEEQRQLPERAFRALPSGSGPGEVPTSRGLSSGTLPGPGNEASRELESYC
# B1: Example 30 (peptide)
# peptide: Ac-[dY]AEGT[αMePhe(2-F)]ISDYSIALDKK([AEEA-AEEA-γGlu-C18 diacid])HQ[Aib]EFVNYLLAGGPSSGAPPPS-NH2
# SMILES: CC[C@H](C)[C@H](NC(=O)[C@H](CO)NC(=O)[C@H](Cc1ccc(O)cc1)NC(=O)[C@H](CC(=O)O)NC(=O)[C@H](CO)NC(=O)[C@@H](NC(=O)[C@](C)(Cc1ccccc1F)NC(=O)[C@@H](NC(=O)CNC(=O)[C@H](CCC(=O)O)NC(=O)[C@H](C)NC(=O)[C@@H](Cc1ccc(O)cc1)NC(C)=O)[C@@H](C)O)[C@@H](C)CC)C(=O)N[C@@H](C)C(=O)N[C@@H](CC(C)C)C(=O)N[C@@H](CC(=O)O)C(=O)N[C@@H](CCCCN)C(=O)N[C@@H](CCCCNC(=O)COCCOCCNC(=O)COCCOCCNC(=O)CC[C@H](NC(=O)CCCCCCCCCCCCCCCCC(=O)O)C(=O)O)C(=O)N[C@@H](Cc1c[nH]cn1)C(=O)N[C@@H](CCC(N)=O)C(=O)NC(C)(C)C(=O)N[C@@H](CCC(=O)O)C(=O)N[C@@H](Cc1ccccc1)C(=O)N[C@H](C(=O)N[C@@H](CC(N)=O)C(=O)N[C@@H](Cc1ccc(O)cc1)C(=O)N[C@@H](CC(C)C)C(=O)N[C@@H](CC(C)C)C(=O)N[C@@H](C)C(=O)NCC(=O)NCC(=O)N1CCC[C@H]1C(=O)N[C@@H](CO)C(=O)N[C@@H](CO)C(=O)NCC(=O)N[C@@H](C)C(=O)N1CCC[C@H]1C(=O)N1CCC[C@H]1C(=O)N1CCC[C@H]1C(=O)N[C@@H](CO)C(N)=O)C(C)C
# B2: Example 33 (peptide)
# peptide: Ac-[dY]AEGT[αMePhe(2-F)]ISDYSIALDKK([AEEA-AEEA-γGlu-C20 diacid])HQ[Aib]EFVNYLLEGGPSSGAPPPS-NH2
# SMILES: CC[C@H](C)[C@H](NC(=O)[C@H](CO)NC(=O)[C@H](Cc1ccc(O)cc1)NC(=O)[C@H](CC(=O)O)NC(=O)[C@H](CO)NC(=O)[C@@H](NC(=O)[C@](C)(Cc1ccccc1F)NC(=O)[C@@H](NC(=O)CNC(=O)[C@H](CCC(=O)O)NC(=O)[C@H](C)NC(=O)[C@@H](Cc1ccc(O)cc1)NC(C)=O)[C@@H](C)O)[C@@H](C)CC)C(=O)N[C@@H](C)C(=O)N[C@@H](CC(C)C)C(=O)N[C@@H](CC(=O)O)C(=O)N[C@@H](CCCCN)C(=O)N[C@@H](CCCCNC(=O)COCCOCCNC(=O)COCCOCCNC(=O)CC[C@H](NC(=O)CCCCCCCCCCCCCCCCCCC(=O)O)C(=O)O)C(=O)N[C@@H](Cc1c[nH]cn1)C(=O)N[C@@H](CCC(N)=O)C(=O)NC(C)(C)C(=O)N[C@@H](CCC(=O)O)C(=O)N[C@@H](Cc1ccccc1)C(=O)N[C@H](C(=O)N[C@@H](CC(N)=O)C(=O)N[C@@H](Cc1ccc(O)cc1)C(=O)N[C@@H](CC(C)C)C(=O)N[C@@H](CC(C)C)C(=O)N[C@@H](CCC(=O)O)C(=O)NCC(=O)NCC(=O)N1CCC[C@H]1C(=O)N[C@@H](CO)C(=O)N[C@@H](CO)C(=O)NCC(=O)N[C@@H](C)C(=O)N1CCC[C@H]1C(=O)N1CCC[C@H]1C(=O)N1CCC[C@H]1C(=O)N[C@@H](CO)C(N)=O)C(C)C
# B3: Example 36 (peptide)
# peptide: Y[Aib]EGT[αMePhe(2-F)]ISDYSIALDKK([AEEA-AEEA-γGlu-C20 diacid])HQ[Aib]DFVEYLLETGPSSGAPPPS-NH2
# modifications: N-terminus assumed
# SMILES: CC[C@H](C)[C@H](NC(=O)[C@H](CO)NC(=O)[C@H](Cc1ccc(O)cc1)NC(=O)[C@H](CC(=O)O)NC(=O)[C@H](CO)NC(=O)[C@@H](NC(=O)[C@](C)(Cc1ccccc1F)NC(=O)[C@@H](NC(=O)CNC(=O)[C@H](CCC(=O)O)NC(=O)C(C)(C)NC(=O)[C@@H](N)Cc1ccc(O)cc1)[C@@H](C)O)[C@@H](C)CC)C(=O)N[C@@H](C)C(=O)N[C@@H](CC(C)C)C(=O)N[C@@H](CC(=O)O)C(=O)N[C@@H](CCCCN)C(=O)N[C@@H](CCCCNC(=O)COCCOCCNC(=O)COCCOCCNC(=O)CC[C@H](NC(=O)CCCCCCCCCCCCCCCCCCC(=O)O)C(=O)O)C(=O)N[C@@H](Cc1c[nH]cn1)C(=O)N[C@@H](CCC(N)=O)C(=O)NC(C)(C)C(=O)N[C@@H](CC(=O)O)C(=O)N[C@@H](Cc1ccccc1)C(=O)N[C@H](C(=O)N[C@@H](CCC(=O)O)C(=O)N[C@@H](Cc1ccc(O)cc1)C(=O)N[C@@H](CC(C)C)C(=O)N[C@@H](CC(C)C)C(=O)N[C@@H](CCC(=O)O)C(=O)N[C@H](C(=O)NCC(=O)N1CCC[C@H]1C(=O)N[C@@H](CO)C(=O)N[C@@H](CO)C(=O)NCC(=O)N[C@@H](C)C(=O)N1CCC[C@H]1C(=O)N1CCC[C@H]1C(=O)N1CCC[C@H]1C(=O)N[C@@H](CO)C(N)=O)[C@@H](C)O)C(C)C
# B4: Example 40 (peptide)
# peptide: Y[Aib]EGT[αMePhe(2-F)]ISDYSIALDKK([AEEA-AEEA-γGlu-C20 diacid])HQ[Aib]DFVEWLLETGPSSGAPPPS-NH2
# modifications: N-terminus assumed
# SMILES: CC[C@H](C)[C@H](NC(=O)[C@H](CO)NC(=O)[C@H](Cc1ccc(O)cc1)NC(=O)[C@H](CC(=O)O)NC(=O)[C@H](CO)NC(=O)[C@@H](NC(=O)[C@](C)(Cc1ccccc1F)NC(=O)[C@@H](NC(=O)CNC(=O)[C@H](CCC(=O)O)NC(=O)C(C)(C)NC(=O)[C@@H](N)Cc1ccc(O)cc1)[C@@H](C)O)[C@@H](C)CC)C(=O)N[C@@H](C)C(=O)N[C@@H](CC(C)C)C(=O)N[C@@H](CC(=O)O)C(=O)N[C@@H](CCCCN)C(=O)N[C@@H](CCCCNC(=O)COCCOCCNC(=O)COCCOCCNC(=O)CC[C@H](NC(=O)CCCCCCCCCCCCCCCCCCC(=O)O)C(=O)O)C(=O)N[C@@H](Cc1c[nH]cn1)C(=O)N[C@@H](CCC(N)=O)C(=O)NC(C)(C)C(=O)N[C@@H](CC(=O)O)C(=O)N[C@@H](Cc1ccccc1)C(=O)N[C@H](C(=O)N[C@@H](CCC(=O)O)C(=O)N[C@@H](Cc1c[nH]c2ccccc12)C(=O)N[C@@H](CC(C)C)C(=O)N[C@@H](CC(C)C)C(=O)N[C@@H](CCC(=O)O)C(=O)N[C@H](C(=O)NCC(=O)N1CCC[C@H]1C(=O)N[C@@H](CO)C(=O)N[C@@H](CO)C(=O)NCC(=O)N[C@@H](C)C(=O)N1CCC[C@H]1C(=O)N1CCC[C@H]1C(=O)N1CCC[C@H]1C(=O)N[C@@H](CO)C(N)=O)[C@@H](C)O)C(C)C
# B5: Example 37 (peptide)
# peptide: Y[Aib]EGT[αMePhe(2-F)]ISDYSIALDKK([AEEA-AEEA-γGlu-C20 diacid])HQ[Aib]DFVEYLLEGGPSSGAPPPS-NH2
# modifications: N-terminus assumed
# SMILES: CC[C@H](C)[C@H](NC(=O)[C@H](CO)NC(=O)[C@H](Cc1ccc(O)cc1)NC(=O)[C@H](CC(=O)O)NC(=O)[C@H](CO)NC(=O)[C@@H](NC(=O)[C@](C)(Cc1ccccc1F)NC(=O)[C@@H](NC(=O)CNC(=O)[C@H](CCC(=O)O)NC(=O)C(C)(C)NC(=O)[C@@H](N)Cc1ccc(O)cc1)[C@@H](C)O)[C@@H](C)CC)C(=O)N[C@@H](C)C(=O)N[C@@H](CC(C)C)C(=O)N[C@@H](CC(=O)O)C(=O)N[C@@H](CCCCN)C(=O)N[C@@H](CCCCNC(=O)COCCOCCNC(=O)COCCOCCNC(=O)CC[C@H](NC(=O)CCCCCCCCCCCCCCCCCCC(=O)O)C(=O)O)C(=O)N[C@@H](Cc1c[nH]cn1)C(=O)N[C@@H](CCC(N)=O)C(=O)NC(C)(C)C(=O)N[C@@H](CC(=O)O)C(=O)N[C@@H](Cc1ccccc1)C(=O)N[C@H](C(=O)N[C@@H](CCC(=O)O)C(=O)N[C@@H](Cc1ccc(O)cc1)C(=O)N[C@@H](CC(C)C)C(=O)N[C@@H](CC(C)C)C(=O)N[C@@H](CCC(=O)O)C(=O)NCC(=O)NCC(=O)N1CCC[C@H]1C(=O)N[C@@H](CO)C(=O)N[C@@H](CO)C(=O)NCC(=O)N[C@@H](C)C(=O)N1CCC[C@H]1C(=O)N1CCC[C@H]1C(=O)N1CCC[C@H]1C(=O)N[C@@H](CO)C(N)=O)C(C)C
# Legend:
# human GLP-1 receptor = target: T2, human GLP-1 receptor (human, UniProt P43220 24-463); experiment: SPA, displacement of [125I]-GLP-1 from hGLP-1R membranes, 0.1% bacitracin
# T2 construct: whole, on cells; Assayed as crude membranes of stably transfected HEK293 cells; also called hGLP1R; hGLP-1R
# Method in brief: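 Binding buffer: 25 mM HEPES pH 7.4, 2.5 mM CaCl₂, 1 mM MgCl₂, 0.1% bacitracin, 0.003% Tween-20, protease inhibitors without EDTA. Four-parameter nonlinear regression; Kᵢ given as geometric mean ± SEM, n = independent replicates run on different days.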
# human glucagon receptor = target: T3, human glucagon receptor (human, UniProt P47871 26-477); experiment: SPA, displacement of [125I]-Gcg from hGcgR membranes, 0.1% bacitracin
# T3 construct: whole, on cells; Assayed as crude membranes of stably transfected HEK293 cells; also called hGcgR; GcgR
# Method in brief: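 Binding buffer: 25 mM HEPES pH 7.4, 2.5 mM CaCl₂, 1 mM MgCl₂, 0.003% Tween-20, protease inhibitors without EDTA. Counted by scintillation after 12 h incubation/settling at room temperature. Four-parameter nonlinear fit; Kᵢ given as geometric mean ± SEM of independent replicates run on different days.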
# [1] = target: T1, human glucose-dependent insulinotropic …; experiment: SPA, displacement of [125I]-GIP from hGIPR membranes, 0.1% bacitracin
# T3 sequence (P47871 26-477): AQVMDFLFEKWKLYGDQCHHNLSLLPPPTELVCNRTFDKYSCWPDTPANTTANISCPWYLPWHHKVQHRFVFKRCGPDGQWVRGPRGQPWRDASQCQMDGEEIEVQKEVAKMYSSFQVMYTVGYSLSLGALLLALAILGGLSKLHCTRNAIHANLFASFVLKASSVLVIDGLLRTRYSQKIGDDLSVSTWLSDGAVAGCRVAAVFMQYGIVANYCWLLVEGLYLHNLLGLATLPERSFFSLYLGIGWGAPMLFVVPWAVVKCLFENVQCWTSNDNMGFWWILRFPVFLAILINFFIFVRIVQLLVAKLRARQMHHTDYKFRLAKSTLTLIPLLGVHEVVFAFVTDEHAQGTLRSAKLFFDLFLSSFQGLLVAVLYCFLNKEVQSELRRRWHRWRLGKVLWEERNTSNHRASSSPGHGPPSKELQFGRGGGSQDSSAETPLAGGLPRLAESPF
Binder,Ki (human GLP-1 receptor),Ki (human glucagon receptor),Ki [1]
B1,26.5 nM,407 nM,0.037 nM
B2,31.2 nM,63.5 nM,0.0369 nM
B3,393 nM,201 nM,0.0683 nM
B4,302 nM,50.9 nM,0.0594 nM
B5,83.9 nM,51.4 nM,0.026 nM
